Molecular target: PNAd (peripheral node addressin), MECA-79 purified human tonsil lysate
Test: precipitation of PNAd with the chimera

percent precipitated: > 90%
B1: L-selectin/IgG chimera (entire extracellular domain of murine L-selectin fused to the Fc domain of human IgG1) (Fc fusion, UniProt P18337 39-332, looked up, not shown: a dimerising Fc or GST)
chain: WTYHYSEKPMNWENARKFCKQNYTDLVAIQNKREIEYLENTLPKSPYYYWIGIRKIGKMWTWVGTNKTLTKEAENWGAGEPNNKKSKEDCVEIYIKRERDSGKWNDDACHKRKAALCYTASCQPGSCNGRGECVETINNHTCICDAGYYGPQCQYVVQCEPLEAPELGTMDCIHPLGNFSFQSKCAFNCSEGRELLGTAETQCGASGNWSSPEPICQVVQCEPLEAPELGTMDCIHPLGNFSFQSKCAFNCSEGRELLGTAETQCGASGNWSSPEPICQETNRSFSKIKEGDYN
